This passage reports stoichiometry N (PKA-C per CFTR) results from doi:10.1101/2024.05.28.596263.

Holding throughout (assay): cryo-EM structure
For test [1], the target named is dephosphorylated CFTR of the P-ATP + AMP-PNP sample (human) (UniProt P13569).
Test [2] has as its target fully-phosphorylated CFTR carrying the ATP-hydrolysis-disrupting E1371Q mutation (human) (UniProt P13569).
Test [3] deals with recombinant human CFTR (cystic fibrosis transmembrane conductance regulator), wild type, dephosphorylated (human) (UniProt P13569).

In the case of “protein kinase A catalytic subunit purified from bovine heart (from UniProt P00517 1-351) (enzyme)”, the stoichiometry N (PKA-C per CFTR) in test [1] turned out to be 1; in test [2], 1; in test [3], 2.
